In US7951560B2, “Delta 4,5 glycuronidase compositions and methods related thereto” (Massachusetts Institute of Technology, priority 2002, dated 2011):
“Also recorded” adds a separate entry of the source.

Experiments:
[1] = substrate: CC(=O)N[C@H]1C(O)O[C@H](COS(=O)(=O)O)[C@@H](O[C@@H]2OC(C(=O)O)=C[C@H](O)[C@H]2O)[C@@H]1O; assay: Kinetic parameters of Δ4, 5 glycuronidase for disaccharide substrates (loss of absorbance at 232 nm, Michaelis-Menten fit); type: biochemical, F. heparinum; conditions: other: 200 nM enzyme, 30° C., pH 6.4, substrate 48 to 400 μM
Experimental: (§1) Assay for enzyme activity and determination of kinetic parameters. Standard reactions were carried out at 30° C. and included 100 mM sodium phosphate buffer, pH 6.4, 50 mM NaCl, 500 μM disaccharide substrate and 200 nM enzyme in a 100 μl reaction volume. Hydrolysis of heparin disaccharides was determined spectrophotometrically by measuring the loss of the Δ4, 5 chromophore measured at 232 nm Substrate hydrolysis was calculated using the following molar extinction coefficients empirically determined for each disaccharide substrate: ΔUHNAc, ε232=4,524; ΔUHNAc6S, ε232=4,300; ΔUHNS, ε232=6,600; ΔUHNS,6S, ε232=6,075; ΔUHNH26S, ε232=4,826; ΔU2SHNS, ε232=4,433. Initial rates (Vo) were extrapolated from linear activities representing <10% substrate turnover and fit to pseudo first-order kinetics. For kinetic experiments, disaccharide concentration for each respective substrate was varied from 48 to 400 μM concentrations. Km and kcat values were extrapolated from Vo vs. [S] curves fit to the Michaelis Menten equation by a non-linear, least squares regression.
(§2) The specificity of the Δ4, 5 glycuronidase acting on various glycosaminoglycan disaccharide substrates was investigated. The various substrates examined included both heparin and chondroitin disaccharides as well as an hyaluronadate. In particular, we considered the possibility of any structural discriminations pertaining to glycosidic linkage position (1→4 vs. 1→3) and relative sulfation state within the disaccharide. For each substrate, kinetic parameters were determined based on substrate saturation profiles that fit Michaelis-Menten assumptions (FIG. 8).

[2] = substrate: N[C@H]1C(O)O[C@H](COS(=O)(=O)O)[C@@H](O[C@@H]2OC(C(=O)O)=C[C@H](O)[C@H]2O)[C@@H]1O; assay: as above; type: biochemical, F. heparinum; conditions: other: 200 nM enzyme, 30° C., pH 6.4, substrate 48 to 400 μM
Experimental: as §1, §2

[3] = substrate: O=C(O)C1=C[C@H](O)[C@@H](O)[C@H](O[C@H]2[C@H](O)[C@@H](NS(=O)(=O)O)C(O)O[C@@H]2COS(=O)(=O)O)O1; assay: as above; type: biochemical, F. heparinum; conditions: other: 200 nM enzyme, 30° C., pH 6.4, substrate 48 to 400 μM
Experimental: as §1, §2

[4] = substrate: O=C(O)C1=C[C@H](O)[C@@H](O)[C@H](O[C@H]2[C@H](O)[C@@H](NS(=O)(=O)O)C(O)O[C@@H]2CO)O1; assay: as above; type: biochemical, F. heparinum; conditions: other: 200 nM enzyme, 30° C., pH 6.4, substrate 48 to 400 μM
Experimental: as §1, §2

[5] = substrate: CC(=O)N[C@H]1C(O)O[C@H](CO)[C@@H](O[C@@H]2OC(C(=O)O)=C[C@H](O)[C@H]2O)[C@@H]1O; assay: as above; type: biochemical, F. heparinum; conditions: other: 200 nM enzyme, 30° C., pH 6.4, substrate 48 to 400 μM
Experimental: as §1, §2

[6] = Specific activity of recombinant Δ4, 5 glycuronidase purification fractions; type: biochemical; conditions: 800 ng protein, 120 μM ΔUHNAc, 100 μl
Experimental: as §1
(§3) A two-step purification comprised of Ni^+2 chelation chromatography followed by thrombin cleavage to remove the 6× His purification tag, typically yielded over 200 mg of greater than 90% pure enzyme as assessed by SDS-PAGE followed by Coomassie Brilliant Blue staining. […] T. and Linker, A., 1972, Biochemistry 11, 568-72]. While removal of the 6× His tag from the N-terminus of the enzyme was unnecessary for optimal hydrolytic activity, the presence of the histidine tag did appear to instigate protein precipitation over an extended time especially at higher enzyme concentrations. This tag was, therefore removed for all subsequent biochemical experiments. In this manner, the recombinant protein was stable at 4° C. for at least two weeks during which time it remained in solution at protein concentrations exceeding 10 mg/mL under the buffer conditions described.

[7] = Biochemical conditions for optimal enzyme activity (NaCl, pH, temperature, divalent metals)
Experimental: For experiments measuring the relative effect of ionic strength on glycuronidase activity, the NaCl concentration was varied from 0.05 to 1 M in 0.1 M sodium phosphate buffer (pH 6.4), 200 μM ΔUHNS,6S and […] under otherwise standard reaction conditions. The effect of pH on catalytic activity was kinetically determined at varying AUHNS,6S concentrations in 0.1 M sodium phosphate buffer at pH 5.2, 5.6, 6.0, 6.4, 6.8, 7.2 and 7.8. Data were fit to Michaelis-Menten kinetics as described above and the relative kcat/Km ratios plotted as a function of pH.
To determine the optimal reaction conditions for Δ4, 5 glycuronidase activity, we analyzed initial reaction rates as a function of buffer, pH, temperature, and ionic strength (FIG. 6). For these experiments, we used the disulfated heparin disaccharide substrate ΔUHNS,6S. Based on what is known about the degradation of heparin/heparan sulfate-like glycosaminoglycans by flavobacteria as well as initial biochemical characterization of this and related enzymes [Warnick, C. T. and Linker, A., 1972, Biochemistry 11, 568-72], we hypothesized that a heparin disaccharide would be an optimal substrate for the Δ4, 5 glycuronidase. Enzyme activity was routinely monitored by a loss of absorbance at 232 nm, corresponding indirectly to the hydrolysis of the uronic acid from the non-reducing end.

[8] = Storage stability and solubility of the recombinant protein after 6× His tag removal; type: physicochemical; conditions: 6× His tag removed, phosphate buffer
Experimental: as §3

[9] = Kinetic comparison of native and recombinant enzymes; type: biochemical; conditions: identical reaction conditions, 200 nM enzyme, 500 μM ΔUHNAc
Experimental: FIG. 7 depicts a kinetic comparison of native and recombinant enzymes. Relative specific activities were measured for both enzyme fractions under identical reaction conditions that included 200 nM enzyme and 500 μM of the heparin disaccharide substrate (ΔUHNAc). Flavobacterial Δ4, 5 (closed circles); recombinant Δ4, 5 (open circles).
Having established the reaction conditions for optimal Δ4, 5 glycuronidase activity, we next compared the specific activity of the recombinant enzyme (Δ4,5^Δ20) relative to the native enzyme purified directly from F. heparinum (FIG. 7). The activities of both enzyme fractions were measured in parallel under identical reaction conditions.

B1: recombinant Δ4, 5 glycuronidase (Δ4,5^Δ20) (Pedobacter heparinus DSM 2366) (protein)
chain: MTVTKGNGDDWLKKSTKTAVIQLTRAAQTYTPGMNPRSVNPDGTVRLAPPRDWTTGFFPGTLWYGYELSGDKNLAAEAKRFTLALDTIQYVKDTHDLGFMLYCSYGNAYRVTGDKIYLKPLENGAANLYARFNKKVGAIRSWDFGHWQFPVIIDNLMNLEYLYWAGKEFNKPEWFDAAKTHAVTTMKNHFRKDYSSYHVISYDTLSGKVLQRETHQGLTNESAWARGQAWGLYGYTMSYKDTKDKKFIEHAEHIAAFIMNHPAMPADKIPLWDFDVHNRDRSPRDASAAAVIASALLDLSTQVKDGQKYFKFAEDILKTLSSDEYLAKPGENQFFILKHSVGALLYNSEIDTPLNYADYYYLEALKRYAEIKKIDLKTINQS
Molecule B1 has a Km [1] of 107 ± 15 µM, a kcat [1] of 11.7 ± 0.6 s⁻¹ and a kcat/Km [1] of 110000 M⁻¹ s⁻¹. The Km [2] was 235 ± 40 µM, the kcat [2] was 2.4 ± 0.2 s⁻¹ and the kcat/Km [2] was 10000 M⁻¹ s⁻¹. It also gave a Km [3] of 334 ± 57 µM, a kcat [3] of 8.8 ± 0.9 s⁻¹ and a kcat/Km [3] of 26000 M⁻¹ s⁻¹. It also gave a Km [4] of 251 ± 40 µM, a kcat [4] of 4.9 ± 0.4 s⁻¹ and a kcat/Km [4] of 20000 M⁻¹ s⁻¹. For the same molecule, the Km [5] was 283 ± 31 µM, the kcat [5] was 15.3 ± 0.9 s⁻¹ and the kcat/Km [5] was 54000 M⁻¹ s⁻¹. For the same molecule, the “Sp. Activity” value ([6]; Crude lysate) was 4.7 μmoles DiS/min./mg protein, the “Sp. Activity” value ([6]; Ni^+2 chromatography) was 12.9 μmoles DiS/min./mg protein and the “Sp. Activity” value ([6]; Thrombin cleavage) was 13.6 μmoles DiS/min./mg protein. The “requirement for divalent metal ions” value [7] was “no evidence that metals are either required for catalysis or activate the enzyme”, the pH optimum ([7]; 0.1 M sodium phosphate pH 5.2-7.8, ΔUHNS,6S, relative kcat/Km) was 6.4 and the “initial reaction rates at highest temperatures” value ([7]; especially at 42° C.) was “significantly reduced”. The “relative enzyme activities after preincubation (enzyme stability)” value ([7]; preincubation at 30, 37, and 42° C., then measured at standard 30° C.) was “no significant change”, the “inhibition at 250 mM NaCl” value ([7]; relative to 100% activity at 100 mM NaCl) was “approximately 60%” and the “stable at 4° C.” value [8] was “at least two weeks”. For the same molecule, the “specific activity relative to the native Flavobacterial enzyme” value [9] was “approximately three-fold; also recorded: at least two-fold; also recorded: roughly three-fold”.
